Experiment [1] concerns KK-Ay diabetic model mice. The experiment in a line: Long-term administration experiment, KK-Ay diabetic model mice. The format is in vivo, mouse. The following applies: 1 mg/Kg twice per week. On the procedure:
The drug is given twice per week, and the mice are fasted for 6 h each Wednesday and tested for fast blood glucose, meanwhile their food intake and weight variation are recorded. […] Specifically, long term administration is conducted according to the following protocol: the KK-Ay diabetic model mice are randomized into blank control group (injected only with PBS) and experimental group (injected with 1 mg/Kg of the fusion protein in Table 3). The drug is given twice per week; after 2 weeks, the mice are fasted for 6 h and tested for fasting blood glucose, and the blood glucose decrease of one experimental group is calculated by subtracting the fasting blood glucose of the experimental group from that of the blank control group.

Experiment [2] concerns the target T1, human GLP-1 receptor (Homo sapiens, UniProt P43220).
T1 construct: expressed in transfected cells; host or cells: CHO (CHO-hGLP1R)
The experiment in a line: Combining (binding) test with CHO engineering cell line expressing human GLP-1R, flow cytometry. The note with it: 4° C. 30 min. On the procedure:
After PBS washing, human immunoglobulin γ chain antibody labeled with fluorescein FITC is added, and incubate at 4° C. for 30 min. After PBS washing, 1% paraformaldehyde in PBS is added, mix thoroughly and load the sample, read the mean fluorescence intensity of sample of each concentration in selected zone in the flow cytometry.

The subject of experiment [3] is KK-Ay diabetic model mice. Nature of the experiment: Single injection hypoglycemic test, KK-Ay mouse obesity diabetic model. Format: in vivo. The following applies: 1 mg/Kg, single injection through caudal vein, 0-240 min, fasted 2 h.
Experiment [4] has as its system KK-Ay diabetic model mice. The experiment in a line: Oral glucose tolerance test, KK-Ay diabetic model mice. Format: in vivo, mouse. The note with it: 1 mg/Kg and 0.1 mg/Kg subcutaneously, glucose 1 mg/g by gastric tube 6 h later.
Experiment [5] has as its target T1, human GLP-1 receptor. The experiment in a line: cAMP secretion test on human GLP-1 receptor CHO cell (CHO-hGLP1R). The format is cell-based. The note with it: for cAMP concentration: 30 min incubation, CHO-hGLP1R.
Experiment [6] deals with db/db diabetic model mice. Nature of the experiment: Single injection hypoglycemic test, db/db mouse obesity diabetic model. The format is in vivo. The note with it: 1 mg/Kg and 0.1 mg/Kg groups, single injection through caudal vein, 0-240 min.

T1 sequence (P43220 24-463): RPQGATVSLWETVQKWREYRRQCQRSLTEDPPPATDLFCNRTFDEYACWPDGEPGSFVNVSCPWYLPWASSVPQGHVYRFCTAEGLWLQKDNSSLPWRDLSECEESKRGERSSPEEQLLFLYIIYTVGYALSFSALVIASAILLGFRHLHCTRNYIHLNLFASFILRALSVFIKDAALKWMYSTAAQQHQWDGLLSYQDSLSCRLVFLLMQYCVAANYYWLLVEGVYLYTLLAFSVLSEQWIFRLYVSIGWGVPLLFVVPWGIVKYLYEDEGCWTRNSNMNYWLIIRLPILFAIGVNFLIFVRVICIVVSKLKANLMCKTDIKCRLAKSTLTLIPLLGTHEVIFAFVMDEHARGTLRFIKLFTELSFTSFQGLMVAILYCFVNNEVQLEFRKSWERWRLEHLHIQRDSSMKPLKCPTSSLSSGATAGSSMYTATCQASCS

B1: LAX09: Exendin-4 (SEQ ID NO: 1) fused via linker SEQ ID NO: 3 to Fc fragment of human IgG2; SEQ ID NO: 4 (protein)
chain: HGEGTFTSDLSKQMEEEAVRLFIEWLKDGGPSSGAPPPSGGGGAGGGGVECPPCPAPPVAGPSVFLFPPKPKDTLMISRTPEVTCVVVDVSHEDPEVQFNWYVDGVEVHNAKTKPREEQFNSTFRVVSVLTVVHQDWLNGKEYKCKVSNKGLPAPIEKTISKTKGQPREPQVYTLPPSREEMTKNQVSLTCLVKGFYPSDIAVEWESNGQPENNYKTTPPMLDSDGSFFLYSKLTVDKSRWQQGNVFSCSVMHEALHNHYTQKSLSLSPGK
modifications: The sequence is synthesized
Usually EC50 stands for the concentration giving half of the maximal effect. Lower therefore signals a more potent agent. In the case of B1, in experiment [1], the food intake entry is “decreases”. In experiment [1], the weight result is “significantly reduced”. The fast blood glucose entry in experiment [1] (fasted 6 h, versus PBS group) is recorded as “significantly different from that of PBS group”. In addition, the Mean fluorescence intensity in experiment [2] (LAX09 mass concentration 0.098 μg/mL) was 14.12; in experiment [2] (LAX09 mass concentration 0.246 μg/mL) it was 17.53; in experiment [2] (LAX09 mass concentration 0.614 μg/mL), 21.78; in experiment [2] (LAX09 mass concentration 1.536 μg/mL) it was 38.01; in experiment [2] (LAX09 mass concentration 3.84 μg/mL), 57.03; in experiment [2] (LAX09 mass concentration 9.6 μg/mL), 81.54. Moreover, the results for the Mean fluorescence intensity in experiment [2] (LAX09 mass concentration 24 μg/mL) and in experiment [2] (LAX09 mass concentration 60 μg/mL) were 94.81 and 121.98, respectively. The “blood glucose of the mouse” value in experiment [3] is “under 10 mmol/L”. Also, the “ability to maintain normal blood glucose (oral glucose tolerance)” value in experiment [4] is “same good ability to maintain normal blood glucose”. Also, in experiment [5] (cAMP in CHO-hGLP1R cells), the EC50 was approximately 4.5 nM. Moreover, the cAMP concentration in experiment [5] (drug concentration 0.01 nM) stood at 2; in experiment [5] (drug concentration 0.1 nM), 5; in experiment [5] (drug concentration 1 nM), 31; in experiment [5] (drug concentration 10 nM), 115; in experiment [5] (drug concentration 1000 nM) it was 153. Further, the “hypoglycemic effect (blood glucose)” value in experiment [6] was “best hypoglycemic effect”.

(Values after US8889619B2 (Beijing Dongfang Biotech Co., Ltd., priority 2010, dated 2014).)
